Literature values as cited in publication PMC7550652.

Target: Calmodulin (Homo sapiens) (UniProt P0DP23)

Kd: 0.16 nM
Substance: ERα (from UniProt P03372)
